Measurements taken from US20220177587A1, “METHODS AND USES OF VARIANT CD80 FUSION PROTEINS AND RELATED CONSTRUCTS” (Alpine Immune Sciences, Inc., priority 2018, published 2022).
Each block holds one substance with its values, some of them ahead of it.

How the values were obtained:
human CTLA-4 (human) [1] = target: human CTLA-4 (human) (UniProt P16410); assay: flow cytometry, CHO cells expressing huCTLA4
PD-L1 (human) [2] = target: PD-L1 (human) (UniProt Q9NZQ7); assay: flow cytometry, CHO cells expressing huPD-L1
Target sequence in this assay (Q9NZQ7 19-290): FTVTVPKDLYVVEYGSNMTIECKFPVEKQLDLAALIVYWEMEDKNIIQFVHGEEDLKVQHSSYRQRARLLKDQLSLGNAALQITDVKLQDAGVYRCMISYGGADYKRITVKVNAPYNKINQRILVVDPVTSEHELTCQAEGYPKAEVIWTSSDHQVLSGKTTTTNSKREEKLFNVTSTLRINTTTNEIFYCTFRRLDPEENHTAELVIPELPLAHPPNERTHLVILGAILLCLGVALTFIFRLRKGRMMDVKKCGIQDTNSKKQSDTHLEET

CD28 (human) [3] = target: CD28 (human) (UniProt P10747); assay: flow cytometry, Jurkat/IL2 reporter cells (endogenous CD28)
CD28 (human) [4] = target: CD28 (human) (UniProt P10747)
PD-L1 (human) [5] = target: PD-L1 (human) (UniProt Q9NZQ7)
Target sequence in this assay (Q9NZQ7 19-290 limits assumed): as the sequence (Q9NZQ7 19-290) above

PD-L1 (human) [6] = target: PD-L1 (human) (UniProt Q9NZQ7); assay: flow cytometry, MFI on PD-L1 cells over MFI on CD28 cells
Target sequence in this assay (Q9NZQ7 19-290): as above

CD28 (human) [7] = target: CD28 (human) (UniProt P10747); assay: flow cytometry, Jurkat cells (CD28)
PD-L1 (human) [8] = target: PD-L1 (human) (UniProt Q9NZQ7); assay: flow cytometry, CHO cells stably expressing PD-L1
Target sequence in this assay (Q9NZQ7 19-290): as above

human CTLA-4 (human) [9] = target: human CTLA-4 (human) (UniProt P16410); assay: flow cytometry, CHO cells stably expressing CTLA4
CD28 (human) [10] = target: CD28 (human) (UniProt P10747); remark: listed apart in the source
CD28 (human) [11] = target: CD28 (human) (UniProt P10747); remark: listed apart in the source
PD-L1 (human) [12] = target: PD-L1 (human) (UniProt Q9NZQ7); remark: listed apart in the source
Target sequence in this assay (Q9NZQ7 19-290): as above

PD-L1 (human) [13] = target: PD-L1 (human) (UniProt Q9NZQ7); remark: listed apart in the source
Target sequence in this assay (Q9NZQ7 19-290): as above

PD-L1 (human) [14] = target: PD-L1 (human) (UniProt Q9NZQ7); assay: flow cytometry, CHO cells expressing huPD-L1; remark: listed apart in the source
Target sequence in this assay (Q9NZQ7 19-290): as above

CD28 (human) [15] = target: CD28 (human) (UniProt P10747); assay: flow cytometry, Jurkat/IL2 reporter cells (CD28)
human CTLA-4 (human) [16] = target: human CTLA-4 (human) (UniProt P16410); assay: flow cytometry, CHO cells expressing huCTLA-4

Sequence of human CTLA-4 (human) (P16410 36-223): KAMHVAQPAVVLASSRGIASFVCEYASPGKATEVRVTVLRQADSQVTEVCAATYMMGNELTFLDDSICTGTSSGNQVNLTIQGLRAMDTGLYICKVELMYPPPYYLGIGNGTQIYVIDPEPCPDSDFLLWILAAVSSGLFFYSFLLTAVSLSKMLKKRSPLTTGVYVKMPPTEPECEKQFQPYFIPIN

Substance: variant CD80 IgV-Fc E24D/Q33L/E35D/M47V/K54R/L85Q (Fc fusion)
- MFI at 33.3 nM (human CTLA-4 (human) [1]): 311000 MFI
- MFI at 33.3 nM (PD-L1 (human) [2]): 67100 MFI

Substance: CD80 E35D/D46V/L85Q IgV-Fc (inert) (Fc fusion)
- Jurkat/IL2 reporter RLU at 50 nM, CHO/OKT3 aAPC without PD-L1 (CD28 (human) [10]): 720 RLU
- IL-2 release, primary T cells + K562/OKT3/PD-L1, 100 nM (CD28 (human) [11]): 1430
- IL-2 release, primary T cells + K562/OKT3/PD-L1, 100 nM (PD-L1 (human) [12]): 1430

Substance: variant CD80 IgV-Fc H18Y/A26E/E35D/V68M/A71G (Fc fusion)
- IL-2 luciferase reporter, fold increase over WT CD80-IgV-Fc at 5.0 nM (CD28 (human) [4]): 2.46 fold
- IL-2 luciferase reporter, fold increase over WT CD80-IgV-Fc at 5.0 nM (PD-L1 (human) [5]): 2.46 fold
- Ratio of PDL1:CD28 (PD-L1 (human) [6]): 69.7
- Fold change to WT CD80 (CD28 (human) [7]): 9 fold
- MFI at 33.3 nM (CD28 (human) [7]): 394 MFI
- Fold change to WT CD80 (PD-L1 (human) [8]): 630 fold
- MFI at 33.3 nM (PD-L1 (human) [8]): 27500 MFI
- Fold change to WT CD80 (human CTLA-4 (human) [9]): 14.3 fold
- MFI at 33.3 nM (human CTLA-4 (human) [9]): 19400 MFI

Substance: variant CD80 IgV-Fc Q33L/E35D/M47V (Fc fusion)
- MFI at 33.3 nM (human CTLA-4 (human) [1]): 47600 MFI
- MFI at 33.3 nM (PD-L1 (human) [2]): 47900 MFI

Substance: CD80 H18Y/A26T/E35D/A71D/L85Q IgV-Fc (inert) (Fc fusion)
- Jurkat/IL2 reporter RLU at 50 nM, CHO/OKT3/PD-L1 aAPC (CD28 (human) [10]): 1160 RLU
- Jurkat/IL2 reporter RLU at 50 nM, CHO/OKT3 aAPC without PD-L1 (CD28 (human) [10]): 926 RLU
- Jurkat/IL2 reporter RLU at 50 nM, CHO/OKT3/PD-L1 aAPC (PD-L1 (human) [13]): 1160 RLU

Substance: CD80 E35D IgV-Fc (inert) (Fc fusion)
- Jurkat/IL2 reporter RLU at 50 nM, CHO/OKT3/PD-L1 aAPC (CD28 (human) [10]): 1610 RLU
- Jurkat/IL2 reporter RLU at 50 nM, CHO/OKT3 aAPC without PD-L1 (CD28 (human) [10]): 448 RLU
- Jurkat/IL2 reporter RLU at 50 nM, CHO/OKT3/PD-L1 aAPC (PD-L1 (human) [13]): 1610 RLU
- IL-2 release, primary T cells + K562/OKT3/PD-L1, 100 nM (CD28 (human) [11]): 2740
- IL-2 release, primary T cells + K562/OKT3/PD-L1, 100 nM (PD-L1 (human) [12]): 2740

Substance: variant CD80 IgV-Fc H18Y/A26E/E35D/V68M/A71G/D90G (Fc fusion)
- IL-2 luciferase reporter, fold increase over WT CD80-IgV-Fc at 5.0 nM (CD28 (human) [4]): 2.41 fold
- IL-2 luciferase reporter, fold increase over WT CD80-IgV-Fc at 5.0 nM (PD-L1 (human) [5]): 2.41 fold
- Ratio of PDL1:CD28 (PD-L1 (human) [6]): 16.3
- Fold change to WT CD80 (CD28 (human) [7]): 40 fold
- MFI at 33.3 nM (CD28 (human) [7]): 1760 MFI
- Fold change to WT CD80 (PD-L1 (human) [8]): 658 fold
- MFI at 33.3 nM (PD-L1 (human) [8]): 28700 MFI
- Fold change to WT CD80 (human CTLA-4 (human) [9]): 17.2 fold
- MFI at 33.3 nM (human CTLA-4 (human) [9]): 23400 MFI

Substance: variant CD80 IgV-Fc E35D/M47L/A71G/L97Q (Fc fusion)
- MFI at 33.3 nM (CD28 (human) [3]): 300 MFI
- MFI at 33.3 nM (human CTLA-4 (human) [1]): 226000 MFI

Continued, values first:

- MFI at 33.3 nM (CD28 (human) [3]): 305 MFI
- MFI at 33.3 nM (human CTLA-4 (human) [1]): 18100 MFI
- MFI at 33.3 nM (PD-L1 (human) [2]): 77500 MFI
Substance: variant CD80 IgV-Fc E35D/M47V/T62A/A71G/V83A/Y87H/L97M (Fc fusion)

- IL-2 luciferase reporter, fold increase over WT CD80-IgV-Fc at 5.0 nM (CD28 (human) [4]): 2.37 fold
- IL-2 luciferase reporter, fold increase over WT CD80-IgV-Fc at 5.0 nM (PD-L1 (human) [5]): 2.37 fold
- Ratio of PDL1:CD28 (PD-L1 (human) [6]): 9.2
- Fold change to WT CD80 (CD28 (human) [7]): 31.4 fold
- MFI at 33.3 nM (CD28 (human) [7]): 1380 MFI
- Fold change to WT CD80 (PD-L1 (human) [8]): 291 fold
- MFI at 33.3 nM (PD-L1 (human) [8]): 12700 MFI
- Fold change to WT CD80 (human CTLA-4 (human) [9]): 14.5 fold
- MFI at 33.3 nM (human CTLA-4 (human) [9]): 19700 MFI
Substance: variant CD80 IgV-Fc H18Y/A26E/E35D/M47L/D90G (Fc fusion)

- MFI at 33.3 nM (CD28 (human) [3]): 303 MFI
- MFI at 33.3 nM (human CTLA-4 (human) [1]): 3560 MFI
Substance: variant CD80 IgV-Fc Q33R/E35D/D46E/M47I (Fc fusion)

- Jurkat/IL2 reporter RLU at 50 nM, CHO/OKT3/PD-L1 aAPC (CD28 (human) [10]): 476 RLU
- Jurkat/IL2 reporter RLU at 50 nM, CHO/OKT3 aAPC without PD-L1 (CD28 (human) [10]): 440 RLU
- Jurkat/IL2 reporter RLU at 50 nM, CHO/OKT3/PD-L1 aAPC (PD-L1 (human) [13]): 476 RLU
- IL-2 release, primary T cells + K562/OKT3/PD-L1, 100 nM (CD28 (human) [11]): 59
- IL-2 release, primary T cells + K562/OKT3/PD-L1, 100 nM (PD-L1 (human) [12]): 59
Substance: CD80 E35G/K54E/A71D/L72P IgV-Fc (inert) (Fc fusion)

- MFI at 33.3 nM (CD28 (human) [3]): 646 MFI
- MFI at 33.3 nM (human CTLA-4 (human) [1]): 336000 MFI
- MFI at 33.3 nM (PD-L1 (human) [14]): 6100 MFI
- MFI at 33.3 nM (CD28 (human) [15]): 46.3 MFI
- MFI at 33.3 nM (PD-L1 (human) [2]): 33200 MFI
- MFI at 33.3 nM (human CTLA-4 (human) [16]): 12900 MFI
Substance: variant CD80 IgV-Fc E35D/M47L/L85Q (Fc fusion)

- Jurkat/IL2 reporter RLU at 50 nM, CHO/OKT3 aAPC without PD-L1 (CD28 (human) [10]): 817 RLU
- IL-2 release, primary T cells + K562/OKT3/PD-L1, 100 nM (CD28 (human) [11]): 7530
- IL-2 release, primary T cells + K562/OKT3/PD-L1, 100 nM (PD-L1 (human) [12]): 7530
Substance: CD80 E35D/M47L IgV-Fc (inert) (Fc fusion)

- Jurkat/IL2 reporter RLU at 50 nM, CHO/OKT3/PD-L1 aAPC (CD28 (human) [10]): 2630 RLU
- Jurkat/IL2 reporter RLU at 50 nM, CHO/OKT3 aAPC without PD-L1 (CD28 (human) [10]): 600 RLU
- Jurkat/IL2 reporter RLU at 50 nM, CHO/OKT3/PD-L1 aAPC (PD-L1 (human) [13]): 2630 RLU
- IL-2 release, primary T cells + K562/OKT3/PD-L1, 100 nM (CD28 (human) [11]): 8390
- IL-2 release, primary T cells + K562/OKT3/PD-L1, 100 nM (PD-L1 (human) [12]): 8390
Substance: CD80 E35D/M47I/L70M IgV-Fc (inert) (Fc fusion)

- MFI at 33.3 nM (CD28 (human) [3]): 266 MFI
Substance: variant CD80 IgV-Fc S15P/Q33L/E35D/M47L/L85Q (Fc fusion)

- IL-2 luciferase reporter, fold increase over WT CD80-IgV-Fc at 5.0 nM (CD28 (human) [4]): 2.45 fold
- IL-2 luciferase reporter, fold increase over WT CD80-IgV-Fc at 5.0 nM (PD-L1 (human) [5]): 2.45 fold
- Ratio of PDL1:CD28 (PD-L1 (human) [6]): 13.8
- Fold change to WT CD80 (CD28 (human) [7]): 24.5 fold
- MFI at 33.3 nM (CD28 (human) [7]): 1080 MFI
- Fold change to WT CD80 (PD-L1 (human) [8]): 340 fold
- MFI at 33.3 nM (PD-L1 (human) [8]): 14800 MFI
- Fold change to WT CD80 (human CTLA-4 (human) [9]): -0.1 fold
- MFI at 33.3 nM (human CTLA-4 (human) [9]): -100 MFI
Substance: variant CD80 IgV-Fc H18Y/A26E/E35D/A71G/D90G (Fc fusion)
